The text below walks through data of the supplement of paper PMC10567573.

The labels stand for the following.
B1: GNB5 (parent)
chain: YYPSGDAFASGSDDATCRLYDLRA
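Note: lentivirally expressed fusions sorted by FACS into six bins by GFP to DsRed ratio, PSI derived from sequencing read proportions per bin multiplied by bin number.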

The variants in the series derive from B1. As to the kind of experiment: protein stability index of a GFP-peptide fusion (GPS, HEK-293T) (PSI 1-6); higher = more stable. The settings on record: c terminus: a fixed tail appended.
For the variant YYPSGDAFASGSDDATCSLYDLRA [R18S], the protein stability index worked out at 2.88.
The result for YYPSGDAFASGSDDATCDLYDLRA [R18D] reads 3.35; that for YYPSGDAFASGSDDATCQLYDLRA [R18Q], 2.85.
As to YYPSGDAFASGSDDATCFLYDLRA [R18F], the protein stability index was found to be 2.84.
On to YYPSGDAFASGSDDATCALYDLRA [R18A], for which the protein stability index amounted to 3.06.
With YYPSGDAFASGSDDATCLLYDLRA [R18L] the figure was 2.45; with YYPSGDAFASGSDDATCGLYDLRA [R18G], 2.85; with YYPSGDAFASGSDDATCELYDLRA [R18E], 3.25.
With YYPSGDAFASGSDDATCCLYDLRA [R18C] the figure was 2.29.
For the variant YYPSGDAFASGSDDATCPLYDLRA [R18P], the protein stability index was found to be 3.13.
With YYPSGDAFASGSDDATCNLYDLRA [R18N] the figure was 2.54.
The result for YYPSGDAFASGSDDATCTLYDLRA [R18T] reads 2.77; that for YYPSGDAFASGSDDATCYLYDLRA [R18Y], 2.49; that for YYPSGDAFASGSDDATCHLYDLRA [R18H], 3.23.
The result for YYPSGDAFASGSDDATCVLYDLRA [R18V] reads 2.67; that for YYPSGDAFASGSDDATCMLYDLRA [R18M], 2.2; that for YYPSGDAFASGSDDATCKLYDLRA [R18K], 3.04.
As for YYPSGDAFASGSDDATCWLYDLRA [R18W], the protein stability index worked out at 2.15.
The result for YYPSGDAFASGSDDATCILYDLRA [R18I] reads 2.42; that for YYPSGDAFASGSDDATCRLYDERA [L22E], 3.34.
As for YYPSGDAFASGSDDATCRLYDIRA [L22I], the protein stability index came out at 2.78.
With YYPSGDAFASGSDDATCRLYDFRA [L22F] the figure was 2.64.
The result for YYPSGDAFASGSDDATCRLYDRRA [L22R] reads 2.75; that for YYPSGDAFASGSDDATCRLYDCRA [L22C], 3.17.
In the case of YYPSGDAFASGSDDATCRLYDVRA [L22V], the protein stability index came out at 2.62.
With YYPSGDAFASGSDDATCRLYDARA [L22A] the figure was 2.8.
YYPSGDAFASGSDDATCRLYDPRA [L22P]: the protein stability index was determined as 2.85.
In the case of YYPSGDAFASGSDDATCRLYDTRA [L22T], the protein stability index stood at 2.73.
With YYPSGDAFASGSDDATCRLYDNRA [L22N], the protein stability index was 2.84.
With YYPSGDAFASGSDDATCRLYDQRA [L22Q] the figure was 2.55.
The result for YYPSGDAFASGSDDATCRLYDGRA [L22G] reads 2.65; that for YYPSGDAFASGSDDATCRLYDDRA [L22D], 3.03.
With YYPSGDAFASGSDDATCRLYDSRA [L22S] the figure was 3.08; with YYPSGDAFASGSDDATCRLYDMRA [L22M], 2.49; with YYPSGDAFASGSDDATCRLYDWRA [L22W], 2.26.
As to YYPSGDAFASGSDDATCRLYDKRA [L22K], the protein stability index was found to be 3.07.
The result for YYPSGDAFASGSDDATCRLYDHRA [L22H] reads 3.09; that for YYPSGDAFASGSDDATCRLYDYRA [L22Y], 2.68; that for YYPSGDAFASGSFDATCRLYDLRA [D13F], 1.63.
The result for YYPSGDAFASGSMDATCRLYDLRA [D13M] reads 1.66.
Turning to YYPSGDAFASGSGDATCRLYDLRA [D13G], the protein stability index came to 1.89.
As for YYPSGDAFASGSKDATCRLYDLRA [D13K], the protein stability index is 2.25.
For the variant YYPSGDAFASGSQDATCRLYDLRA [D13Q], the protein stability index turned out to be 2.2.
With YYPSGDAFASGSYDATCRLYDLRA [D13Y] the figure was 2.11; with YYPSGDAFASGSEDATCRLYDLRA [D13E], 2.27; with YYPSGDAFASGSIDATCRLYDLRA [D13I], 2.27.
On to YYPSGDAFASGSWDATCRLYDLRA [D13W], for which the protein stability index turned out to be 1.65.
With YYPSGDAFASGSTDATCRLYDLRA [D13T] the figure was 1.76.
With YYPSGDAFASGSRDATCRLYDLRA [D13R], the protein stability index came to 1.88.
With YYPSGDAFASGSVDATCRLYDLRA [D13V] the figure was 1.78.
The result for YYPSGDAFASGSNDATCRLYDLRA [D13N] reads 2.38; that for YYPSGDAFASGSLDATCRLYDLRA [D13L], 1.93.
In the case of YYPSGDAFASGSSDATCRLYDLRA [D13S], the protein stability index amounted to 2.28.
In the case of YYPSGDAFASGSHDATCRLYDLRA [D13H], the protein stability index worked out at 2.23.
With YYPSGDAFASGSPDATCRLYDLRA [D13P] the figure was 2.19; with YYPSGDAFASGSDDATCRLYYLRA [D21Y], 1.61.
For YYPSGDAFASGSDDATCRLYNLRA [D21N], the protein stability index came out at 1.99.
For YYPSGDAFASGSDDATCRLYRLRA [D21R], the protein stability index is 1.99.
In the case of YYPSGDAFASGSDDATCRLYHLRA [D21H], the protein stability index worked out at 2.31.
With YYPSGDAFASGSDDATCRLYKLRA [D21K] the figure was 2.43.
Take YYPSGDAFASGSDDATCRLYILRA [D21I]: the protein stability index came to 2.41.
With YYPSGDAFASGSDDATCRLYELRA [D21E] the figure was 2.47; with YYPSGDAFASGSDDATCRLYMLRA [D21M], 2.23.
With YYPSGDAFASGSDDATCRLYLLRA [D21L] the figure was 2.02.
With YYPSGDAFASGSDDATCRLYFLRA [D21F], the protein stability index is 1.5.
On to YYPSGDAFASGSDDATCRLYQLRA [D21Q], for which the protein stability index was determined as 2.3.
In the case of YYPSGDAFASGSDDATCRLYGLRA [D21G], the protein stability index was 2.2.
YYPSGDAFASGSDDATCRLYTLRA [D21T]: the protein stability index came to 1.99.
Regarding YYPSGDAFASGSDDATCRLYSLRA [D21S], the protein stability index turned out to be 1.89.
Regarding YYPSGDAFASGSDDATCRLYVLRA [D21V], the protein stability index came out at 1.8.
On to YYPSGDAFASGSDDATCRLYALRA [D21A], for which the protein stability index was determined as 2.18.
The result for YYPSGDAFASGSDDATCRLYCLRA [D21C] reads 1.58.
The result for YYPSGDAFASGSDDATCRLYPLRA [D21P] reads 2.52.
For YYPSGDAFASGSDDATCRLYWLRA [D21W], the protein stability index stood at 2.25.
With YYPSGDAFASGSDDAKCRLYDLRA [T16K] the figure was 3.11.
The result for YYPSGDAFASGSDDAHCRLYDLRA [T16H] reads 2.37.
As to YYPSGDAFASGSDDAECRLYDLRA [T16E], the protein stability index amounted to 2.79.
With YYPSGDAFASGSDDACCRLYDLRA [T16C] the figure was 2.27; with YYPSGDAFASGSDDAACRLYDLRA [T16A], 2.96.
With YYPSGDAFASGSDDAQCRLYDLRA [T16Q] the figure was 2.88; with YYPSGDAFASGSDDAMCRLYDLRA [T16M], 2.31; with YYPSGDAFASGSDDANCRLYDLRA [T16N], 2.69.
YYPSGDAFASGSDDASCRLYDLRA [T16S]: the protein stability index was found to be 2.42.
With YYPSGDAFASGSDDAVCRLYDLRA [T16V] the figure was 1.95.
Regarding YYPSGDAFASGSDDAICRLYDLRA [T16I], the protein stability index amounted to 2.18.
Take YYPSGDAFASGSDDADCRLYDLRA [T16D]: the protein stability index was determined as 2.91.
With YYPSGDAFASGSDDARCRLYDLRA [T16R] the figure was 2.94; with YYPSGDAFASGSDDAPCRLYDLRA [T16P], 2.54; with YYPSGDAFASGSDDAYCRLYDLRA [T16Y], 2.52.
For the variant YYPSGDAFASGSDDAGCRLYDLRA [T16G], the protein stability index amounted to 2.46.
As for YYPSGDAFASGSDDALCRLYDLRA [T16L], the protein stability index came to 2.32.
With YYPSGDAFASGSDDAFCRLYDLRA [T16F], the protein stability index is 2.32.
Turning to YYPSGDAFASGSDDAWCRLYDLRA [T16W], the protein stability index turned out to be 1.91.
The result for YYPSGDAFASGSDDVTCRLYDLRA [A15V] reads 2.72.
